The data set concerns the molecule itself. As to the kind of experiment: native gel or EMSA.

B1: recombinant eGFP–GBPL3 (natural protein, Arabidopsis thaliana, UniProt F4KG14 1-1082, looked up)
chain: MRSFFGRGGKDSPADSASPSPRSYPSTSPASSSAVTGPPRPIRLVYCDEKGKFRMDPEAVATLQLVKEPIGVVSVCGRARQGKSFILNQLLGRSNGFQVASTHKPCTKGLWLWSSPIKRTALDGTEYNLLLLDSEGIDAYDQTGTYSTQIFSLAVLLSSMFVYNQMGGIDEASLDRLSLVTQMTKHIRVKASGGTSSRSELGQFSPIFVWLLRDFYLDLVEDNRKISPRDYLEIALRPVQGSGGDIGAKNEIRDSIRALFPDRECFTLVRPLNNEKDLQRLDQISLEKLRPEFGAGLDAFTKFVFEKTRPKQLGGTVMTGPILVGITQSYLDALNNGAVPTITSSWQSVEETECRRAYDSGVEAYMAAFDQSKAPEEGALREEHEEAVRKALAIFNSNAVGNGSARKKFEDLLHKDLKKKFEDYKKNAFMEADLRCTSTIQRMEKQLRAACHASNANMDNVVKVLEARLAEYEASCHGPGKWQKLSVFLQQSLEGPIYDLTKRLIDSIAIEKNSLAMKFRSVEDAMKHLKQQLDDSERYKLEYQKRYDESNNDKKKLEDIYRERITKLQGENSSLNERCSTLVKTVESKKEEIKEWIRNYDQIVLKQKAVQEQLSSEMEVLRTRSTTSEARVAAAREQAKSAAEETKEWKRKYDYAVGEARSALQKAASVQERSGKETQLREDALREEFSITLANKDEEITEKATKLEKAEQSLTVLRSDLKVAESKLESFEVELASLRLTLSEMTDKLDSANKKALAYEKEANKLEQEKIRMEQKYRSEFQRFDEVKERCKAAEIEAKRATELADKARTDAVTSQKEKSESQRLAMERLAQIERAERQVENLERQKTDLEDELDRLRVSEMEAVSKVTILEARVEEREKEIGSLIKETNAQRAHNVKSLEKLLDEERKAHIAANRRAEALSLELQAAQAHVDNLQQELAQARLKETALDNKIRAASSSHGKRSRFEDVVDMDIGEGSDRILRTNKRARSTRGDDHGPTDEGDEDFQSHQDNGEEEEEEDYRKLTVQNLKHELTKYDCGHLLLNRGHQNKKEILALYEAHVLPKKALAREEERKKQREVTSS
As for B1, the binding result is recorded as “binds”.

The values are drawn from PMC8478157 (Nature, 2021).
